The values that follow come from patent publication US20040002144A1.

The chains are these.
B1: transglutaminase derived from Streptoverticillium mobaraense (MTG), wild type, P81453 77-407 (enzyme)
chain: DSDDRVTPPAEPLDRMPDPYRPSYGRAETVVNNYIRKWQQVYSHRDGRKQQMTEEQREWLSYGCVGVTWVNSGQYPTNRLAFASFDEDRFKNELKNGRPRSGETRAEFEGRVAKESFDEEKGFQRAREVASVMNRALENAHDESAYLDNLKKELANGNDALRNEDARSPFYSALRNTPSFKERNGGNHDPSRMKAVIYSKHFWSGQDRSSSADKRKYGDPDAFRPAPGTGLVDMSRDRNIPRSPTSPGEGFVNFDYGWFGAQTEADADKTVWTHGNHYHAPNGSLGAMHVYESKFRNWSEGYSDFDRGAYVITFIPKSWNTAPDKVKQGWP
B2: S2Y mutant MTG (Ser2 replaced with Tyr, in Met type MTG), P81453 79-407 (enzyme)
chain: MDYDDRVTPPAEPLDRMPDPYRPSYGRAETVVNNYIRKWQQVYSHRDGRKQQMTEEQREWLSYGCVGVTWVNSGQYPTNRLAFASFDEDRFKNELKNGRPRSGETRAEFEGRVAKESFDEEKGFQRAREVASVMNRALENAHDESAYLDNLKKELANGNDALRNEDARSPFYSALRNTPSFKERNGGNHDPSRMKAVIYSKHFWSGQDRSSSADKRKYGDPDAFRPAPGTGLVDMSRDRNIPRSPTSPGEGFVNFDYGWFGAQTEADADKTVWTHGNHYHAPNGSLGAMHVYESKFRNWSEGYSDFDRGAYVITFIPKSWNTAPDKVKQGWP
B3: S2R mutant MTG (Ser2 replaced with Arg, in Met type MTG), P81453 79-407 (enzyme)
chain: MDRDDRVTPPAEPLDRMPDPYRPSYGRAETVVNNYIRKWQQVYSHRDGRKQQMTEEQREWLSYGCVGVTWVNSGQYPTNRLAFASFDEDRFKNELKNGRPRSGETRAEFEGRVAKESFDEEKGFQRAREVASVMNRALENAHDESAYLDNLKKELANGNDALRNEDARSPFYSALRNTPSFKERNGGNHDPSRMKAVIYSKHFWSGQDRSSSADKRKYGDPDAFRPAPGTGLVDMSRDRNIPRSPTSPGEGFVNFDYGWFGAQTEADADKTVWTHGNHYHAPNGSLGAMHVYESKFRNWSEGYSDFDRGAYVITFIPKSWNTAPDKVKQGWP
B4: S2D mutant MTG (Ser2 replaced with Asp, in Met type MTG), P81453 79-407 (enzyme)
chain: MDDDDRVTPPAEPLDRMPDPYRPSYGRAETVVNNYIRKWQQVYSHRDGRKQQMTEEQREWLSYGCVGVTWVNSGQYPTNRLAFASFDEDRFKNELKNGRPRSGETRAEFEGRVAKESFDEEKGFQRAREVASVMNRALENAHDESAYLDNLKKELANGNDALRNEDARSPFYSALRNTPSFKERNGGNHDPSRMKAVIYSKHFWSGQDRSSSADKRKYGDPDAFRPAPGTGLVDMSRDRNIPRSPTSPGEGFVNFDYGWFGAQTEADADKTVWTHGNHYHAPNGSLGAMHVYESKFRNWSEGYSDFDRGAYVITFIPKSWNTAPDKVKQGWP
B5: Ser-type MTG (mutant in which Asp1 has been removed, starts with Ser2), P81453 78-407 (enzyme)
chain: SDDRVTPPAEPLDRMPDPYRPSYGRAETVVNNYIRKWQQVYSHRDGRKQQMTEEQREWLSYGCVGVTWVNSGQYPTNRLAFASFDEDRFKNELKNGRPRSGETRAEFEGRVAKESFDEEKGFQRAREVASVMNRALENAHDESAYLDNLKKELANGNDALRNEDARSPFYSALRNTPSFKERNGGNHDPSRMKAVIYSKHFWSGQDRSSSADKRKYGDPDAFRPAPGTGLVDMSRDRNIPRSPTSPGEGFVNFDYGWFGAQTEADADKTVWTHGNHYHAPNGSLGAMHVYESKFRNWSEGYSDFDRGAYVITFIPKSWNTAPDKVKQGWP

This assay concerns the target casein. Kind of assay: cell-based or functional assay.
As to B1, the time required for the gelation of casein came out at 90 min. The result for B2 reads 100 min; that for B3, 85 min. The result for B4 reads 95 min; that for B5, 85 min.
